The test system of the data set is ATP. The data set is described as follows: switch fluorescence ratio, 500 uM ATP over buffer (Cy3 cluster intensity, sum of 5 cycles each) (fold (ratio)); higher = stronger signal-on switching upon ATP binding; sequences stand for … in TCGTCGGCAGCGTCAGATGTGTATAAGAGACAGTTTTTTTTTTTTTTTTTTTTTTTTT…TC. The settings on record: aptamer strand: ATP DNA aptamer (quencher-CACCTGGGGGAGTATTGCGGAGGAAGG + anchor), 100 nM annealed; ATP concentration: 500 uM. The method in brief: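 Cy3-labelled switching-strand clusters on a modified Illumina MiSeq flow-cell were annealed to 100 nM quencher-labelled ATP aptamer, imaged in selection buffer, then imaged after 15 min with 500 uM ATP at 22 °C. Five buffer/ATP cycles ran, with NaOH stripping and re-annealing between them. The fluorescence ratio is summed target-cycle over summed buffer-cycle Cy3 intensity per cluster, averaged per switch-domain sequence. Clusters outside 100-1000 RFU were excluded.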

± gives the standard deviation of the averaged measurements.
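Note: ATP exposure 15 min at 22 °C before imaging.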

Take AAAAGGATCT: the switch fluorescence ratio stood at 1.02 ± 0.029.

Consider CTCATAGGGA, for which the switch fluorescence ratio is 0.983 ± 0.024.

AGCGGTGTGC: the switch fluorescence ratio was determined as 0.9738 ± 0.0031.

For the sequence CTAGGGGACA, the switch fluorescence ratio was 1.04 ± 0.029.

On to GAGGCGTTGC, for which the switch fluorescence ratio stood at 1.06 ± 0.05.

In the case of AACTTCAGGC, the switch fluorescence ratio was determined as 1.05 ± 0.041.

For TGGATGTGAT, the switch fluorescence ratio is 1.03 ± 0.049.

Take ATGAGGCCTT: the switch fluorescence ratio worked out at 1.01 ± 0.019.

With CGAAGGTTTA, the switch fluorescence ratio came out at 0.9981 ± 0.0018.

With AAGGACAAGA, the switch fluorescence ratio is 1.02 ± 0.00092.

Take TAAGGGTGTG: the switch fluorescence ratio is 1 ± 0.023.

As for ATACGAATTC, the switch fluorescence ratio came to 1.01 ± 0.049.

AAAGGGTAAC: the switch fluorescence ratio was 0.988 ± 0.036.

As for AGAGGGATGG, the switch fluorescence ratio amounted to 0.9919 ± 0.0076.

For TATGAGATAG, the switch fluorescence ratio was 0.982 ± 0.021.

As to AATTAACTTT, the switch fluorescence ratio came out at 0.985 ± 0.023.

Consider ATTGAGGAGG, for which the switch fluorescence ratio was 1.02 ± 0.023.

Regarding GGGAAATTGT, the switch fluorescence ratio turned out to be 0.997 ± 0.017.

On to CGGAGGCTTG, for which the switch fluorescence ratio turned out to be 1.01 ± 0.061.

Turning to TGGCCACTT, the switch fluorescence ratio was 0.986 ± 0.023.

CGAAGGGTCC: the switch fluorescence ratio amounted to 0.959 ± 0.031.

As to CCATTATATC, the switch fluorescence ratio was 1.01 ± 0.047.

Regarding TCATGGATCC, the switch fluorescence ratio came to 1.01 ± 0.035.

Turning to AGAATGGGAA, the switch fluorescence ratio is 1 ± 0.019.

On to GTTTTATTAT, for which the switch fluorescence ratio worked out at 1.017 ± 0.0017.

In the case of ATTAGGGGTT, the switch fluorescence ratio came out at 1 ± 0.037.

Turning to TGTTAATCAC, the switch fluorescence ratio was determined as 1.02 ± 0.034.

For AAATTGTAAT, the switch fluorescence ratio amounted to 1.02 ± 0.041.

On to TCAATAGAGG, for which the switch fluorescence ratio worked out at 1.05 ± 0.034.

As for GTCTGTTCTT, the switch fluorescence ratio amounted to 0.951 ± 0.019.

Turning to AGAAGGTGCC, the switch fluorescence ratio came to 1.05 ± 0.049.

GGTTTTAGCT: the switch fluorescence ratio came to 0.997 ± 0.016.

CGGTGTCAGC: the switch fluorescence ratio amounted to 1.012 ± 0.0059.

On to TTAGGGCTGC, for which the switch fluorescence ratio came to 0.98664 ± 0.00045.

Turning to GCATATGATC, the switch fluorescence ratio was 1.05 ± 0.021.

Regarding AAGTTGGCGC, the switch fluorescence ratio was 1.01 ± 0.037.

As for AACGCTATGT, the switch fluorescence ratio stood at 1.05 ± 0.023.

On to AGGACTCTCA, for which the switch fluorescence ratio is 1.01 ± 0.032.

As for TTTGAACGGG, the switch fluorescence ratio came to 1.01 ± 0.036.

As for TGTGCGCGCT, the switch fluorescence ratio was 0.995 ± 0.036.

As for TTTTTGCATT, the switch fluorescence ratio worked out at 1.038 ± 0.0028.

In the case of GGGGAATACA, the switch fluorescence ratio was found to be 1.02 ± 0.017.

With TGGGTAAGGC, the switch fluorescence ratio is 0.961 ± 0.08.

Take AGGCCACCTT: the switch fluorescence ratio is 1.04 ± 0.023.

Regarding AGGGCTGCCC, the switch fluorescence ratio was 1 ± 0.021.

On to TTTGACCTGT, for which the switch fluorescence ratio was determined as 0.991 ± 0.013.

For TACCCTTTTT, the switch fluorescence ratio came to 1.01 ± 0.054.

With TTTTTCACCG, the switch fluorescence ratio was determined as 1.07 ± 0.079.

As for AAGAGGATG, the switch fluorescence ratio worked out at 0.977 ± 0.023.

Consider ACAGCATTTT, for which the switch fluorescence ratio worked out at 1.03 ± 0.0072.

In the case of GGCGGGGAAA, the switch fluorescence ratio worked out at 0.981 ± 0.045.

As to CGGCATGGGT, the switch fluorescence ratio was 0.989 ± 0.018.

For TTTGGATGAC, the switch fluorescence ratio is 1.01 ± 0.063.

With AAATGGTGTA, the switch fluorescence ratio came to 0.983 ± 0.028.

Take TTCGTTCGGT: the switch fluorescence ratio was determined as 1.06 ± 0.07.

As for AATGTGGGCC, the switch fluorescence ratio is 1.024 ± 0.0013.

For the sequence CTGATACATT, the switch fluorescence ratio was 0.9715 ± 0.0069.

With GGGGATTTAT, the switch fluorescence ratio came to 0.997 ± 0.019.

Regarding ATTAAAGTTT, the switch fluorescence ratio is 1.04 ± 0.034.

For the sequence AATTTGTCAT, the switch fluorescence ratio came out at 0.972 ± 0.045.

Turning to GTTTCGGGGG, the switch fluorescence ratio is 0.9895 ± 0.006.

For ACACTGCTTA, the switch fluorescence ratio came to 1.02 ± 0.044.

AGGTGGGGAG: the switch fluorescence ratio was determined as 0.998 ± 0.041.

Regarding TTTCTTTCGG, the switch fluorescence ratio came out at 1.03 ± 0.048.

Take ATCTATGGGT: the switch fluorescence ratio amounted to 0.987 ± 0.01.

As for TAGAAACTTT, the switch fluorescence ratio came to 1.1 ± 0.14.

For the sequence AGCTCAGGGA, the switch fluorescence ratio is 1.04 ± 0.027.

As for GGTAGTAGTA, the switch fluorescence ratio turned out to be 1 ± 0.034.

In the case of TTCTTATTTT, the switch fluorescence ratio was 0.999 ± 0.014.

On to CTTGCGTGTC, for which the switch fluorescence ratio was found to be 1.03 ± 0.038.

As to TGGAAGTGAG, the switch fluorescence ratio was determined as 0.969 ± 0.055.

TGGTCCCCGG: the switch fluorescence ratio is 0.997 ± 0.025.

In the case of TCTTAGGTCA, the switch fluorescence ratio is 0.973 ± 0.022.

Turning to CAAAAAATTA, the switch fluorescence ratio is 1.01 ± 0.031.

For the sequence AACGGGGTGG, the switch fluorescence ratio amounted to 0.976 ± 0.044.

Take TTGTTGGTTT: the switch fluorescence ratio turned out to be 1.02 ± 0.05.

Regarding TTAAGTTGCA, the switch fluorescence ratio stood at 1.05 ± 0.028.

TGATAGAGTG: the switch fluorescence ratio came out at 1.01 ± 0.074.

Consider GGGTTGGAAA, for which the switch fluorescence ratio stood at 0.989 ± 0.03.

Source of the values: the supplement of paper PMC10126150.
